{"source": "patent US8444970B2", "about": "“Compositions and methods for treating ocular diseases and conditions” (Lpath, Inc., priority 2006, dated 2013)", "key": {"[1]": {"assay": "Competitive ELISA for specificity / cross-reactivity to bioactive lipids", "type": "binding", "details": "for recognition of ceramide-1-phosphate (C1P): competitor lipid C1P; for cross-reactivity to lysophosphatidic acid (LPA): competitor lipid LPA; for cross-reactivity with sphingosylphosphorylcholine (SPC): competitor lipid SPC", "protocol": "Screening of serum and cell supernatant for S1P-specific antibodies was by direct ELISA using a thiolated S1P analog as the antigen. A standard ELISA was performed, as described below, except that 50 ul of sample (serum or cell supernatant) was diluted with an equal volume of PBS/0.1% Tween-20 (PBST) during the primary incubation. ELISAs were performed in 96-well high binding ELISA plates (Costar) coated with 0.1 μg of chemically-synthesized thiolated-S1P conjugated to BSA in binding buffer (33.6 mM Na2CO3, 100 mM NaHCO3; pH 9.5). The thiolated-S1P-BSA was incubated at 37° C. for 1 hr. at 4° C. overnight in the ELISA plate wells. The plates were then washed four times with PBS (137 mM NaCl, 2.68 mM KCl, 10.14 mM Na2HPO4, 1.76 mM KH2PO4; pH 7.4) and blocked with PBST for 1 hr. at room temperature. For the primary incubation step, 75 uL of the sample (containing the S1P to be measured), was incubated with 25 uL of 0.1 ug/mL anti-S1P mAb diluted in PBST and added to a well of the ELISA plate. Each sample was performed in triplicate wells. Following a 1 hr. incubation at room temperature, the ELISA plates were washed four times with PBS and incubated with 100 ul per well of 0.1 ug/mL HRP goat anti-mouse secondary (Jackson Immunoresearch) for 1 hr. at room temperature. Plates were then washed four times with PBS and exposed to tetramethylbenzidine (Sigma) for 1-10 minutes. The detection reaction was stopped by the addition of an equal volume of 1M H2SO4. Optical density of the samples was determined by measurement at 450 nm using an EL-X-800 ELISA plate reader (Bio-Tech).\nFor cross reactivity, a competitive ELISA was performed as described above, except for the following alterations. The primary incubation consisted of the competitor (S1P, SPH, LPA, etc.) and a biotin-conjugated anti-S1P mAb. Biotinylation of the purified monoclonal antibody was performed using the EZ-Link Sulfo-NHS-Biotinylation kit (Pierce). Biotin incorporation was determined as per kit protocol and ranged from 7 to 11 biotin molecules per antibody. The competitor was prepared as follows: lipid stocks were sonicated and dried under argon before reconstitution in DPBS/BSA [1 mg/ml fatty acid free BSA (Calbiochem) in DPBS (Invitrogen 14040-133)]. Purified anti-S1P mAb was diluted as necessary in PBS/0.5% Triton X-100. Competitor and antibody solutions were mixed together so to generate 3 parts competitor to 1 part antibody. A HRP-conjugated streptavidin secondary antibody (Jackson Immunoresearch) was used to generate signal.\ni. Specificity. The humanized variants were tested for specificity in a competitive ELISA assay (FIG. 1) against S1P and several other biolipids. This assay has the added benefit to allow for epitope mapping."}, "[2]": {"test_system": "HUVECs", "assay": "HUVEC tube formation on Matrigel", "type": "cell-based, human", "details": "co-incubated with S1P, GF-reduced Matrigel, 6 hr", "protocol": "FIG. 5. FIG. 5 has two panels, A and B. In panel A, S1P is shown to promote neovascularization through induction of HUVECs tube formation and migration, which is reduced by SPHINGOMAB. […] The number of cells that migrated to the Matrigel membrane were counted in five independent fields.\nExperiments were performed as described by Visentin et al. (Cancer Cell 2006 March; 9(3):225-38)."}, "[3]": {"test_system": "Swiss 3T3 fibroblasts", "assay": "S1P-stimulated fibroblast proliferation (3H-thymidine incorporation)", "type": "cell-based", "details": "1 ug/mL antibody, 12-24 hr", "protocol": "(§1) FIG. 7. […] See Example 7, below, for experimental details. […] In these experiments, fibroblasts were serum-starved and then treated with 0, 0.1, 0.5, or 1 μM S1P+/−1 μg/mL SPHINGOMAB for 12-24 hr. […] SPHINGOMAB neutralized each of these S1P effects. SPHINGOMAB reduced perivascular fibrosis in vivo in a murine model of a permanent myocardial infarction (E).\n(§2) S1P makes profound contributions to wound healing by activating fibroblast migration, proliferation and collagen production; SPHINGOMAB neutralizes these effects. Several studies using multiple types of fibroblasts confirm S1P's ability to promote wound healing: 1) S1P increased Swiss-3T3 fibroblast proliferation as measured by ^3H-thymidine incorporation using standard methods (FIG. 7A); 2) S1P promoted the migration of cardiac fibroblasts in a standard scratch wound healing assay. […] In each of these assays, SPHINGOMAB neutralized S1P's. It is anticipated that ocular fibroblasts would respond similarly to S1P and SPHINGOMAB."}, "[4]": {"test_system": "cardiac fibroblasts from transgenic mice expressing collagen-GFP", "assay": "S1P-stimulated collagen gene expression (collagen-GFP reporter)", "type": "cell-based, mouse", "details": "1 ug/mL antibody, 12-24 hr", "protocol": "as §1, §2"}, "[5]": {"test_system": "WI-38 lung fibroblasts", "assay": "S1P-induced differentiation into myofibroblasts (alpha-SMA immunoblot)", "type": "cell-based", "details": "1 ug/mL antibody, 12-24 hr", "protocol": "as §1, §2"}, "[6]": {"test_system": "perivascular fibrosis", "assay": "Permanent myocardial infarction model, cardiac scar formation (Masson's trichrome)", "type": "in vivo, mouse", "details": "25 mg/kg systemic, initiated 48 hrs after surgery", "protocol": "Studies evaluated the efficacy of SPHINGOMAB to reduce cardiac scar formation after permanent myocardial infarction (MI) via ligation of the left descending coronary artery in mice. Systemic administration of 25 mg/kg SPHINGOMAB or saline was initiated 48 hrs after surgery. Antibody administration at 48 hr. was chosen to allow normal, reparative scar formation to occur during the early remodeling phase and permit beneficial, S1P-stimulated angiogenesis immediately after the MI. Two weeks after the infarct, mice were sacrificed and fibrosis was accessed by Masson's trichrome staining of the cardiac tissue. […] As a control for any non-specific wound-healing responses, sham animals underwent thoracotomy without coronary artery ligation (FIG. 7E)."}, "[7]": {"test_system": "macrophage and mast cell infiltration", "assay": "Murine infarct model, immune cell infiltration into the wound", "type": "in vivo, mouse", "details": "25 mg/kg 48 hr after surgery, four days post-MI", "protocol": "FIG. 9. […] SPHINGOMAB reduced immune-cell wound infiltration in vivo. Mice were subjected to MI, treated with saline or 25 mg/kg SPHINGOMAB 48 hr. after surgery and then sacrificed on day 4. SPHINGOMAB reduced macrophage (A) and mast cell (B) infiltration into the wound. Data are represented as fold decrease of saline-treated values.\nBased upon the similarities of immune and inflammatory responses in CNV and CVD, the efficacy of SPHINGOMAB to mitigate immune cell infiltration into a wound was evaluated in a murine infarct model as an indication of SPHINGOMAB's potential effects in mitigating these damages during AMD [Vine, et al. (2005), Opthalmology., vol 112: 2076-80; and Seddon and Chen (2004), Int Opthalmol Clin., vol 44: 17-39]. Four days post-MI, macrophage and mast cell infiltration was evaluated using MAC-1 and MCG35 antibodies, respectively, within the area at risk."}}}
{"molecule": "LT1002: murine anti-S1P monoclonal antibody, IgG1 kappa, hybridoma clone 306D326.26 (antibody, listed as Mus sp., V domains shown) VH: QAHLQQSDAELVKPGASVKISCKVSGFIFIDHTIHWMKQRPEQGLEWIGCISPRHDITKYNEMFRGKATLTADKSSTTAYIQVNSLTFEDSAVYFCARGGFYGSTIWFDFWGQGTTLTVS VL: ETTVTQSPASLSMAIGEKVTIRCITTTDIDDDMNWFQQKPGEPPNLLISEGNILRPGVPSRFSSSGYGTDFLFTIENMLSEDVADYYCLQSDNLPFTFGSGTKLEIK", "values": [{"measurement": "Specificity (ELISA)", "setting": "[1]; In vitro activity, Table 7", "value": "High"}, {"measurement": "recognition of ceramide-1-phosphate (C1P)", "setting": "[1]; listed as SPHINGOMAB", "value": "did not recognize"}, {"measurement": "recognition of ceramide-1-phosphate (C1P)", "setting": "[1]; listed as anti-S1P mAb", "value": "no antibody binding was observed"}, {"measurement": "cross-reactivity with dihydrosphingosine-1-phosphate (DH-S1P)", "setting": "[1]; competitor lipid DH-S1P", "value": "did cross react"}, {"measurement": "recognition of dihydrosphingosine (DH-SPH)", "setting": "[1]; competitor lipid DH-SPH", "value": "did not recognize"}, {"measurement": "cross-reactivity to lysophosphatidic acid (LPA)", "setting": "[1]; listed as SPHINGOMAB", "value": "no cross-reactivity"}, {"measurement": "cross-reactivity to lysophosphatidic acid (LPA)", "setting": "[1]; listed as anti-S1P mAb", "value": "no binding"}, {"measurement": "recognition of phosphatidyl ethanolamine (PE)", "setting": "[1]; competitor lipid PE", "value": "did not recognize"}, {"measurement": "recognition of phosphatidyl serine (PS)", "setting": "[1]; competitor lipid PS", "value": "did not recognize"}, {"measurement": "recognition of sphingomyelin (SM)", "setting": "[1]; competitor lipid SM", "value": "did not recognize"}, {"measurement": "cross-reactivity with sphingosylphosphorylcholine (SPC)", "setting": "[1]; listed as SPHINGOMAB", "value": "to a lesser extent"}, {"measurement": "cross-reactivity with sphingosylphosphorylcholine (SPC)", "setting": "[1]; listed as anti-S1P mAb", "value": "somewhat reduced"}, {"measurement": "cross-reactivity to sphingosine (SPH)", "setting": "[1]; competitor lipid SPH", "value": "no cross-reactivity"}, {"measurement": "formation of capillary-like structures", "setting": "[2]", "value": "failed to form capillary-like structures"}, {"measurement": "S1P-stimulated Swiss 3T3 fibroblast proliferation", "setting": "[3]", "value": "neutralized"}, {"measurement": "S1P-promoted collagen expression", "setting": "[4]", "value": "neutralized"}, {"measurement": "S1P-induced differentiation of WI-38 fibroblasts into myofibroblasts", "setting": "[5]", "value": "neutralized"}, {"measurement": "perivascular fibrosis two weeks after infarct", "setting": "[6]", "value": "almost complete abrogation"}, {"measurement": "density of inflammatory macrophages", "setting": "[7]", "value": "dramatically attenuated"}, {"measurement": "density of mast cells", "setting": "[7]", "value": "dramatically attenuated"}]}
